{
  "source": "paper PMC10643893",
  "about": "(2022)",
  "experiment_in_all_cases": "SPR",
  "key": {"[1]": {"target": "T1, pneumolysin (Streptococcus pneumoniae, UniProt P0C2J9 1-471)", "T1 chain": "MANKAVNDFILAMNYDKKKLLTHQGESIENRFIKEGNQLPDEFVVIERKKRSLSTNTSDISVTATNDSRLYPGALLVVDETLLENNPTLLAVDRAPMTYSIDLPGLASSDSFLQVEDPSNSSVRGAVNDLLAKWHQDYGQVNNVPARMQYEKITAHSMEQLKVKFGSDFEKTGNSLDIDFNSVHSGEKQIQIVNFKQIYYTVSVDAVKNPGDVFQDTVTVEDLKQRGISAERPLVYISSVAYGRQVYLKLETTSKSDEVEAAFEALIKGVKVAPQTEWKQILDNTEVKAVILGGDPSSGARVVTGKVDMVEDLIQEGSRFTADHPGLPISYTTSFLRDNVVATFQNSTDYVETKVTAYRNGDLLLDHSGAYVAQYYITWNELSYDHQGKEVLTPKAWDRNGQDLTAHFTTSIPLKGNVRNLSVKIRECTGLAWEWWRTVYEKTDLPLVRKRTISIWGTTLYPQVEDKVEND"}, "[2]": {"target": "T1, pneumolysin"}, "[3]": {"target": "T1, pneumolysin"}},
  "data": [
    {"binder": "factor XII (zymogen) (natural protein) IPPWEAPKEHKYKAEEHTVVLTVTGEPCHFPFQYHRQLYHKCTHKGRPGPQPWCATTPNFDQDQRWGYCLEPKKVKDHCSKHSPCQKGGTCVNMPSGPHCLCPQHLTGNHCQKEKCFEPQLLRFFHKNEIWYRTEQAAVARCQCKGPDAHCQRLASQACRTNPCLHGGRCLEVEGHRLCHCPVGYTGAFCDVDTKASCYDGRGLSYRGLARTTLSGAPCQPWASEATYRNVTAEQARNWGLGGHAFCRNPDNDIRPWCFVLNRDRLSWEYCDLAQCQTPTQAAPPTPVSPRLHVPLMPAQPAPPKPQPTTRTPPQSQTPGALPAKREQPPSLTRNGPLSCGQRLRKSLSSMTRVVGGLVALRGAHPYIAALYWGHSFCAGSLIAPCWVLTAAHCLQDRPAPEDLTVVLGQERRNHSCEPCQTLAVRSYRLHEAFSPVSYQHDLALLRLQEDADGSCALLSPYVQPVCLPSGAARPSETTLCQVAGWGHQFEGAEEYASFLQEAQVPFLSLERCSAPDVHGSSILPGMLCAGFLEGGTDACQGDSGGPLVCEDQAAERRLTLQGIISWGSGCGDRNKPGVYTDVAYYLAWIREHTVS", "values": [
      {"measurement": "Ka", "setting": "[1]", "result": "4.41e+07", "unit": "M⁻¹"},
      {"measurement": "Kd", "setting": "[2]", "result": 24.9, "unit": "nM"},
      {"measurement": "koff", "setting": "[3]", "result": 0.00198, "unit": "s⁻¹"}
    ]},
    {"binder": "plasma kallikrein (zymogen) (natural protein) not shown", "values": [
      {"measurement": "Ka", "setting": "[1]", "result": "3.04e+06", "unit": "M⁻¹"},
      {"measurement": "Kd", "setting": "[2]", "result": 328, "unit": "nM"},
      {"measurement": "koff", "setting": "[3]", "result": 0.00942, "unit": "s⁻¹"}
    ]},
    {"binder": "high-molecular-weight kininogen (natural protein) QESQSEEIDCNDKDLFKAVDAALKKYNSQNQSNNQFVLYRITEATKTVGSDTFYSFKYEIKEGDCPVQSGKTWQDCEYKDAAKAATGECTATVGKRSSTKFSVATQTCQITPAEGPVVTAQYDCLGCVHPISTQSPDLEPILRHGIQYFNNNTQHSSLFMLNEVKRAQRQVVAGLNFRITYSIVQTNCSKENFLFLTPDCKSLWNGDTGECTDNAYIDIQLRIASFSQNCDIYPGKDFVQPPTKICVGCPRDIPTNSPELEETLTHTITKLNAENNATFYFKIDNVKKARVQVVAGKKYFIDFVARETTCSKESNEELTESCETKKLGQSLDCNAEVYVVPWEKKIYPTVNCQPLGMISLMKRPPGFSPFRSSRIGEIKEETTVSPPHTSMAPAQDEERDSGKEQGHTRRHDWGHEKQRKHNLGHGHKHERDQGHGHQRGHGLGHGHEQQHGLGHGHKFKLDDDLEHQGGHVLDHGHKHKHGHGHGKHKNKGKKNGKHNGWKTEHLASSSEDSTTPSAQTQEKTEGPTPIPSLAKPGVTVTFSDFQDSDLIATMMPPISPAPIQSDDDWIPDIQIDPNGLSFNPISDFPDTTSPKCPGRPWKSVSEINPTTQMKESYYFDLTDGLS", "values": [
      {"measurement": "Ka", "setting": "[1]", "result": 573000, "unit": "M⁻¹"},
      {"measurement": "Kd", "setting": "[2]", "result": 12600, "unit": "nM"},
      {"measurement": "koff", "setting": "[3]", "result": 0.00208, "unit": "s⁻¹"}
    ]}
  ]
}
